In article PMC2275666 (The EMBO Journal, 2008):
Positions count from the first letter of the chain named.

Columns and labels:
6H–hTFIIEα V372A = biological target: T1, 6H–hTFIIEα V372A (human, UniProt P29083 1-439, V372A); test: pull-down
T1 sequence: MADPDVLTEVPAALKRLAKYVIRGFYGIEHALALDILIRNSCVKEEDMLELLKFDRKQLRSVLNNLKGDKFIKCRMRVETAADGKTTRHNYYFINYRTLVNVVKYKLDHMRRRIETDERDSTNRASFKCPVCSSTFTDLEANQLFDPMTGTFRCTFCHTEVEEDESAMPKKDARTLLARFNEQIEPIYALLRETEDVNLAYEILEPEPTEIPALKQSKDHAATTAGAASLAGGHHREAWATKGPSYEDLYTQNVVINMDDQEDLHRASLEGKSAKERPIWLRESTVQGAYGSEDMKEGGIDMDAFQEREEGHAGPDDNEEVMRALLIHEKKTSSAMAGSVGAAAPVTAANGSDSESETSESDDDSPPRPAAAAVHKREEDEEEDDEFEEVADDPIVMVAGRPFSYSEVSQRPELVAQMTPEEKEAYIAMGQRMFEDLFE

6H–hTFIIEα V372D = biological target: T2, 6H–hTFIIEα V372D (human, UniProt P29083 1-439, V372D); test: pull-down
T2 sequence: T1 sequence with A372D

binding result (6H–hTFIIEα V372A): binds | binding result (6H–hTFIIEα V372D): binds
B1: GST-tagged hTFIIEβ (natural protein)
chain: MDPSLLRERELFKKRALSTPVVEKRSASSESSSSSSKKKKTKVEHGGSSGSKQNSDHSNGSFNLKALSGSSGYKFGVLAKIVNYMKTRHQRGDTHPLTLDEILDETQHLDIGLKQKQWLMTEALVNNPKIEVIDGKYAFKPKYNVRDKKALLRLLDQHDQRGLGGILLEDIEEALPNSQKAVKALGDQILFVNRPDKKKILFFNDKSCQFSVDEEFQKLWRSVTVDSMDEEKIEEYLKRQGISSMQESGPKKVAPIQRRKKPASQKKRRFKTHNEHLAGVLKDYSDITSSK
